From PMC12319226 (Frontiers in Bioinformatics, 2025)

T1: fHbp m002416 (Neisseria meningitidis, fHbp v3.28/v1.1 …, point mutant)
T1 construct: also called fHbp 2,416; Round 2 best mutant
T1 chain: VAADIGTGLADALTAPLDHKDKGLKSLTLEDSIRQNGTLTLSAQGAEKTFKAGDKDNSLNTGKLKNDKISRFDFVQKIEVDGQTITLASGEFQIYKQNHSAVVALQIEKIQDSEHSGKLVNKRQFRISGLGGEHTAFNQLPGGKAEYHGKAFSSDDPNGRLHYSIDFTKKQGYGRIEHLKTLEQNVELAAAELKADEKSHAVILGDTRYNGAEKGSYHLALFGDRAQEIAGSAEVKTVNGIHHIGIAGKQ

T2: Neisseria meningitidis factor H binding protein variant 3.28 (Neisseria meningitidis, fHbp variant …, strain)
T2 construct: also called fHbp v3.28; fHbp variant 3.28
T2 chain: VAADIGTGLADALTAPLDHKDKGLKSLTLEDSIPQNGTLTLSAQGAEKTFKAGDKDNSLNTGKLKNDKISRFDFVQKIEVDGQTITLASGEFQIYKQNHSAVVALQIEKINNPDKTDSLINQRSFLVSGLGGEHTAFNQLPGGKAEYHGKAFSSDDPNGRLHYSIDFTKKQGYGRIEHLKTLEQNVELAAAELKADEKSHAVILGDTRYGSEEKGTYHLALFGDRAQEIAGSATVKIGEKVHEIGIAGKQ

T3: fHbp m000019 (Neisseria meningitidis, fHbp v1.1 …, point mutant)
T3 construct: also called Round 1 best mutant
T3 chain: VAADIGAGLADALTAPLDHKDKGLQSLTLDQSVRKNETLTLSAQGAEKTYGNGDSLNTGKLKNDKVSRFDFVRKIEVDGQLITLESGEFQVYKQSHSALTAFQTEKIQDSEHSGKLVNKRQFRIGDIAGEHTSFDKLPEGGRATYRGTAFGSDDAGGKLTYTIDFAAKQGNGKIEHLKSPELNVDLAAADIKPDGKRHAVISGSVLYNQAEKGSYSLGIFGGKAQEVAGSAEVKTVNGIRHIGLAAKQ

B1: human mAb 4B3 (antibody, V domains shown)
VH: QVQLVQSGGGLVKPGGSLRLSCAASGFPFSSYYMSWIRQAPGKGLEWVSDINNSGNVKEYADFVKGRLTISRDNVKNSMYLHMNSLRVEDTAVYYCARNRGRFDVWGQGTLVTVSA
VL: EIVMTQSPGTLSLSPGETATLSCRASQMISSPFLAWYQQRRGQAPRLLIYGASTRATDTPDRFRGSGSGTDFILTISRLEPEDFAVYYCQYYDDSPFTFGQGTKLEIK
notes: source: Expi293, transient transfection, purified (MabSelect SuRe, SEC)
B2: human mAb 1E6 (antibody, V domains shown)
VH: EVQLVQSGAEVKKPGSSVKVSCKASGGTVIDYPITWVRQAPGQGLEWVGGFVPLFRTSNYGQKFQGRVTITADKSTSTASMELNSLTSEDTAIYYCARGDTAMGPFDYWGQGTLVTVSS
VL: SYVLTQPPSLSVAPGKTATLTCGGNNIAGKTVHWYQQRPGQAPVLVISYDSDRPSGIPERFSGSNSANTATLTISRVEAGDEADYYCQVWDRNSDHWVFGGGTKLTVL
notes: as for B1

Columns and labels:
Assay in all cases: BLI
Conditions in all cases: both partners purified
[1] = molecular target: T4, Neisseria meningitidis factor H binding protein variant 1.1 (Neisseria meningitidis, UniProt Q9JXV4)
T4 construct: also called fHbp v1.1; fHbp variant 1.1

[2] = molecular target: T1, fHbp m002416
[3] = molecular target: T2, Neisseria meningitidis factor H binding …
[4] = molecular target: T3, fHbp m000019

Row | Binder | Kd [1] [nM] | Kd [2] [nM] | Kd [3] [nM] | Kd [4] [nM]
1 | B1 | 1 to 5 | 3.8 | 5 to 6 | 2.4
2 | B2 | 3 to 10 | 0.32 | 2 to 4 | 0.8
